# Results: US20140302020A1 (ALETHIA BIOTHERAPEUTICS, published 2014)
# B1: humanized 21B12 anti-clusterin antibody (full length, human IgG2) (antibody, V domains shown)
# VH: QVQLVQSGSELKKPGASVKVSCKASGYTFTNYGMHWVRQAPGQGLEWMGWINTYTGEPTYADDFKGRFVFSLDTSVSTAYLQISSLKAEDTAVYYCARDGFLYFFDYWGQGTLVTVSS
# VL: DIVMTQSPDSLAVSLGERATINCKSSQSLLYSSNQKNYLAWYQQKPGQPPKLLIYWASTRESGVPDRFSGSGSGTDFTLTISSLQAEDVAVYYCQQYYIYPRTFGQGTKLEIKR
# notes: also called HH21B12
# B2: 21B12 Fab (Fab, V domains shown)
# VH: QIQLVQSGPELKKPGETVKISCKASGYTFTNYGMHWVKQAPGKGLKWMGWINTYTGEPTYADDFKGRFAFSLETSASTAYLQINNLKNEDTATYFCARDGFLYFFDYWGQGTTLTVSS
# VL: DIVMSQSPSSLAVSVGEKVTMSCKSSQSLLYSSNQKNYLAWYQQRPGQSPKLLIYWASTRESGVPDRFTGSGSGTDFTLTISSVKAEDLAVYYCQQYYIYPRTFGGGTKLEIK
# notes: also called mouse 21B12 Fab; Fab fragment of the murine 21B12 anti-clusterin antibody
# B3: mouse 21B12 anti-clusterin monoclonal antibody (full length) (antibody, V domains shown)
# VH: B2 VH
# VL: B2 VL
# notes: also called murine 21B12; parent mouse 21B12
# B4: mouse 16B5 Fab (Fab, V domains shown)
# VH: EVQLQQSGAELVKPGASVRLSCTTSGFNIKDIYMHWVKQRPEQGLEWIGRIDPAYGNTKYDPKFQGKATITADTSSNTAYLQLSSLTSEDTAVYYCARRYDTAMDYWGQGTSVTVSS
# VL: DIVMSQSPSSLAVSAGEKVTMSCKSSQSLLNSRTRKNYLAWYQQKPGQSPKLLIYWASTRESGVPDRFTGSGSGTDFTLTISSVQAEDLAVYYCKQSYNLWTFGGGTKLEFK
# notes: also called Fab mouse antibody
# B5: mouse 16B5 anti-clusterin monoclonal antibody (full length) (antibody, V domains shown)
# VH: B4 VH
# VL: B4 VL
# notes: Full-length mouse IgG purified from the original hybridoma; also called murine 16B5; hybridoma 16B5
# B6: humanized 16B5 anti-clusterin antibody (full length, human IgG2) (antibody, V domains shown)
# VH: QVQLVQSGAEVKKPGATVKISCKVSGFNIKDIYMHWVQQAPGKGLEWMGRIDPAYGNTKYDPKFQGRVTITADTSTDTAYMELSSLRSEDTAVYYCARRYDTAMDYWGQGTLVTVSS
# VL: DIVMTQSPDSLAVSLGERATINCKSSQSLLNSRTRKNYLAWYQQKPGQPPKLLIYWASTRESGVPDRFSGSGSGTDFTLTISSLQAEDVAVYYCKQSYNLWTFGQGTKLEIKV
# notes: also called h16B5; H16B5
# B7: humanized 16B5 Fab (Fab, V domains shown)
# VH: B6 VH
# VL: DIVMTQSPDSLAVSLGERATINCKSSQSLLNSRTRKNYLAWYQQKPGQPPKLLIYWASTRESGVPDRFSGSGSGTDFTLTISSLQAEDVAVYYCKQSYNLWTFGQGTKLEIK
# notes: The preparation still held some F(ab')2; also called HH16B5 Fab; HH 16B5 Fab
# Key:
# [1] = biological target: T1, recombinant monomeric human clusterin (human, UniProt P10909 23-449); test: SPR (BIAcore 3000), recombinant monomeric human clusterin amine-coupled to a CM3 chip, full length antibody injected
# T1 construct: Tags and processing into alpha and beta chains are not described; also called recombinant human clusterin; immobilized clusterin
# Experimental: (§1) The purpose of these investigations is to determine the kinetics parameters of anti-clusterin antibodies. In particular, to determine whether the humanization of the 16B5 and 21B12 anti-clusterin monoclonal antibody affects the kinetics parameters of its binding to human clusterin. To this end, a kinetic analysis method was developed using the BIAcore 3000. Human clusterin was immobilized on a sensor chip. Full length antibodies or Fab fragments were injected and allowed to interact with the immobilized clusterin. This example described the exemplary antibody 16B5 but the 21B12 exemplary antibody was prepared and tested in a similar manner.
# (§2) HBST (10 mM Hepes pH 7.4, 135 mM NaCl, 3.4 mM EDTA, 0.005% Tween 20) was used as running buffer for all BIAcore experiments. Recombinant monomeric clusterin was immobilized on a CM3 chip with normal amine coupling method at a flow of 5 μl/min. Surface was activated with 35 μl of a mixture of 50 mM NHS/0.2M EDC. Clusterin in 10 mM Na-acetate pH 4.5 was injected until a desired amount was captured (below 60RU). Unreacted esters were deactivated with 35 μl of 1M ethanolamine hydrochloride-NaOH pH8.5. A control surface was prepared by injecting NHS/EDC and ethanolamine in the same manner.
# (§3) Kinetics analysis was conducted at a flow of 50 μl/min. Full length antibodies (mouse or humanized) or Fab were diluted in HBST. Concentration range was from 1.953-31.25 nM for the full length antibodies and 15.625-250 nM for the Fab. Each concentration was injected over the clusterin and a control surface for 5 min followed with a 5 min dissociation wash. The clusterin surface was regenerated between each antibody injection with 50 μl of 20 mM HCl.
# [2] = biological target: T1, recombinant monomeric human clusterin; test: SPR (BIAcore 3000), recombinant monomeric human clusterin amine-coupled to a CM3 chip, Fab injected
# Experimental: as §1, §2, §3
# [3] = biological target: T1, recombinant monomeric human clusterin; test: as above; remark: listed apart in the source
# Experimental: as §2, §3
# [4] = biological target: T1, recombinant monomeric human clusterin; test: SPR (BIAcore 3000), recombinant monomeric human clusterin amine-coupled to a CM3 chip, full length antibody injected; remark: listed apart in the source
# Experimental: as §2, §3
# T1 sequence (P10909 23-449 limits assumed): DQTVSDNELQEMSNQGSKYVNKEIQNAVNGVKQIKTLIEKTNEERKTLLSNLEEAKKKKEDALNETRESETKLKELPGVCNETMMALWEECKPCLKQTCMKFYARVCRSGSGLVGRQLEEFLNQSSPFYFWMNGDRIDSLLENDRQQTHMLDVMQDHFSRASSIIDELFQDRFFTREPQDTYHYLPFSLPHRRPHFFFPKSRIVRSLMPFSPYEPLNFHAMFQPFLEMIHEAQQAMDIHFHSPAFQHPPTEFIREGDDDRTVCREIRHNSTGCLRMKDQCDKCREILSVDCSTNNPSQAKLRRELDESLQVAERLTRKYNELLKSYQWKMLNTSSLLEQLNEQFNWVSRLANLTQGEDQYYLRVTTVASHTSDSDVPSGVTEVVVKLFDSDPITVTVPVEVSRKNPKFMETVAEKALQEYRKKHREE
binder,measurement,setting,value
B1,Kd,[1],2.23 nM
same,koff,[1],0.00083 s⁻¹
same,kon,[1],374000 M⁻¹ s⁻¹
B2,Kd,[2],25.3 nM
same,koff,[2],0.00352 s⁻¹
same,kon,[2],215000 M⁻¹ s⁻¹
B3,Kd,[1],5.09 nM
same,koff,[1],0.0015 s⁻¹
same,kon,[1],362000 M⁻¹ s⁻¹
B4,Kd,[3],41.6 nM
same,koff,[3],0.003 s⁻¹
same,kon,[3],74100 M⁻¹ s⁻¹
B5,Kd,[4],6.64 nM
same,koff,[4],0.0017 s⁻¹
same,kon,[4],329000 M⁻¹ s⁻¹
B6,Kd,[4],4.49 nM
same,koff,[4],0.0015 s⁻¹
same,kon,[4],345000 M⁻¹ s⁻¹
B7,Kd,[3],17.2 nM
same,koff,[3],0.0027 s⁻¹
same,kon,[3],159000 M⁻¹ s⁻¹
